The test system of the data set is ZF6-DB (synthetic construct). Kind of data set: EMSA. Conditions: 1.5 uM protein, DNA titrated 145-250 nM; apparent Kd, Scatchard; 6.25 mM MgCl2; 25 mM Hepes pH 7.9, 50 mM KCl, 6.25 mM MgCl2, 1% Nonidet P-40, 5% glycerol; 15 min on ice; 5% PAGE in 0.5x TBE at 4 C.

Regarding hRHO 65 bp duplex oligonucleotide, the Kd came to 41.9 nM.

The record behind these values is article PMC4805542.
